Results as given in patent publication US20170312350A1 (published 2017).

Tests used:
[1] = molecular target: T1, IGF2BP3 (IGF2BP3-001) peptide on HLA-A2 (human); assay: Target peptide titration on loaded target cells, IFN-gamma release; RNA-electroporated primary CD8+ T cells; full-length, on cells
T1 peptide: KIQEILTQV

[2] = molecular target: T2, IGF2BP3-001 A9 (alanine-substitution variant of IGF2BP3-001) peptide on HLA-A*02, assumed (human); assay: cytokine release
T2 peptide: KIQEILTQA

[3] = molecular target: T3, IGF2BP3-001 A2 (alanine-substitution variant of IGF2BP3-001) peptide on HLA-A*02, assumed (human); assay: cytokine release
T3 peptide: KAQEILTQV

[4] = molecular target: T4, IGF2BP3-001 A8 (alanine-substitution variant of IGF2BP3-001) peptide on HLA-A*02, assumed (human); assay: cytokine release
T4 peptide: KIQEILTAV

- EC50 of peptide [1]: ~1 nM
- binding result [2]: recognises
- binding result [3]: recognises
- binding result [4]: recognises
B1: TCR R10P1A7 (TCR, V domains shown)
Valpha: GEDVEQSLFLSVREGDSSVINCTYTDSSSTYLYWYKQEPGAGLQLLTYIFSNMDMKQDQRLTVLLNKKDKHLSLRIADTQTGDSAIYFCAESKETRLMFGDGTQLVVKP
Vbeta: GAVVSQHPSWVICKSGTSVKIECRSLDFQATTMFWYRQFPKQSLMLMATSNEGSKATYEQGVEKDKFLINHASLTLSTLTVTSAHPEDSSFYICSARAGGHEQFFGPGTRLTVL
